Assay results taken from patent US20090175881A1 (SCHERING, published 2009).
Residue numbers refer to the chain shown, from its start. Names may count otherwise.

T1: rhIL-17A (human, UniProt Q16552 24-155)
T1 sequence: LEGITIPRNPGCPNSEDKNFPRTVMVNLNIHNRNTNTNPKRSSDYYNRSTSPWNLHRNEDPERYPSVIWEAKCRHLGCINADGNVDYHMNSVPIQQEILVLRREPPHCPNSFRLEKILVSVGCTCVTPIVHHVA

T2: cynomolgus monkey IL-17A (cynomolgus monkey, UniProt A0A2K5TTB0 24-155)
T2 sequence: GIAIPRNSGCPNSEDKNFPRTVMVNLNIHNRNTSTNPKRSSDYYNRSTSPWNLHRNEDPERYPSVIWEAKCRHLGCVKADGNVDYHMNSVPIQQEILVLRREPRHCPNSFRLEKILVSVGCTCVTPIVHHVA

B1: hu 16C10 VH M96A (antibody, human IgG1, V domains shown)
VH: QVQLQESGPGLVKPSETLSLTCTVSGFSLPSHSVSWIRQPPGKGLEWIGIIWNNGGTDYNSAFKSRVTISVDTSKNQFSLKLSSVTAADTAVYYCARNAYITDYYYENYFMDAWGQGTLVTVSS
VL: DIVMTQSPLSLPVTPGEPASISCKSSQSLLFSENQKNYLAWYLQKPGQSPQLLIYWTSTRQSGVPDRFSGSGSGTDFTLKISRVEAEDVGVYYCQQSYYTPYTFGQGTKVEIKR
notes: Variant of hu 16C10 wt; Human IgG1/kappa; also called hu16C10 (M96A)
B2: hu 16C10 VH M100hF (antibody, human IgG1, V domains shown)
VH: B1 VH with A99M, M111F
VL: B1 VL
notes: Variant of hu 16C10 wt; Human IgG1/kappa; also called hu16C10 (M100hF)
B3: hu 16C10 VH M96K (antibody, human IgG1, V domains shown)
VH: B1 VH with A99K
VL: B1 VL
notes: Variant of hu 16C10 wt; Human IgG1/kappa; also called hu16C10 (M96K)
B4: hu 16C10 VH N54A (antibody, human IgG1, V domains shown)
VH: B1 VH with N54A, A99M
VL: B1 VL
notes: Variant of hu 16C10 wt; Human IgG1/kappa; also called hu16C10 (N54A)
B5: hu 16C10 VH N54Q (antibody, human IgG1, V domains shown)
VH: B1 VH with N54Q, A99M
VL: B1 VL
notes: Variant of hu 16C10 wt; Human IgG1/kappa; also called hu16C10 (N54Q)
B6: rat 4C3 (antibody, V domains shown)
VH: QVELRESGPGLVQPSQTLSLTCTVSGFSLPSHSVSWIRQPPGKGLEWMGIIWNNGGTDYNSAFKSRLTISRDTSKSQVFLKMNSLQTEDTAMYFCARNMYITDYYYENYFMDAWGQGASVTVSS
VL: DIVMTQSPSSLAVSVGETVTLNCKSSQSLLFSENQKNYLAWYQHKSGQSPKLLVYWTSTRQSGVPDRFMGSGSGTDFTLTISSVQAEDLAIYYCQQSYYTPYTFGAGTKLELKR
B7: rat 12E6 (antibody, V domains shown)
VH: EVQLEESGGGLVQPGRSLKLSCAASGFTFRDYYMVWVRQAPKKGLEWVASISYEGSSIYYGESVKGRFTISRDNAKSTLYLQMNSLRSEDTATYYCARHGFNPFDYWGRGVMVTVSS
VL: DIQMTQSPSSLSASLGDRVTITCRTSQDIGNYLSWFQQKPGKSPRLMIYGASNLEDGVPSRFSGSRSGSDYSLTISSLESEDTAIYYCLQYDKYPNTFGAGTKLELKR
B8: hu 16C10 Fab (Fab, V domains shown)
VH: B1 VH with N54Q
VL: B1 VL
notes: also called Fab fragment of hu 16C10
B9: hu 16C10 VH N60Q (antibody, human IgG1, V domains shown)
VH: B1 VH with N60Q, A99M
VL: B1 VL
notes: Variant of hu 16C10 wt; Human IgG1/kappa
B10: hu 16C10 VH M96F (antibody, human IgG1, V domains shown)
VH: B1 VH with A99F
VL: B1 VL
notes: as for B9
B11: hu 16C10 VH M96L (antibody, human IgG1, V domains shown)
VH: B1 VH with A99L
VL: B1 VL
notes: as for B9
B12: hu 16C10 VH M100hL (antibody, human IgG1, V domains shown)
VH: B1 VH with A99M, M111L
VL: B1 VL
notes: as for B9
B13: hu 16C10 VH N60A (antibody, human IgG1, V domains shown)
VH: B1 VH with N60A, A99M
VL: B1 VL
notes: as for B9

target: T1, rhIL-17A; experiment: cell-based or functional assay

In order of falling “IC50, synoviocyte IL-6 production, rhIL-17A (30 ng/ml)” value:
1. B2  0.07 µg/mL
2. B1  0.06 µg/mL
3. B3  0.06 µg/mL
4. B4  0.06 µg/mL
5. B5  0.06 µg/mL

target: T1, rhIL-17A; experiment: cell-based or functional assay; remark: another data set of the same source

In order of falling “IC50, synoviocyte IL-8 production, rhIL-17A (30 ng/ml)” value:
1. B2  0.05 µg/mL
2. B1  0.025 µg/mL
3. B3  0.025 µg/mL
4. B4  0.025 µg/mL
5. B5  0.025 µg/mL

target: T1, rhIL-17A; experiment: cell-based or functional assay; remark: another data set of the same source

Going from B6 to B7, the “IC50, inhibition of IL-6 production in NHDF cells, rhIL-17A” value rises from 0.5 nM to over 70 nM.

target: T2, cynomolgus monkey IL-17A; experiment: cell-based or functional assay

Compared with B6, B7 is higher in “IC50, inhibition of IL-6 production in NHDF cells, cyno IL-17A” value: 0.2 nM for the first, over 70 nM for the second.

target: T1, rhIL-17A; experiment: KinExA, solution equilibrium
Method: The equilibrium dissociation constants (Kd) for anti human IL-17A antibodies were determined using the KinExA 3000 instrument (Sapidyne Instruments Inc., Boise, Id., USA). KinExA uses the principle of the Kinetic Exclusion Assay method based on measuring the concentration of uncomplexed antibody in a mixture of antibody, antigen and antibody-antigen complex. […] The concentration of free antibody is measured by exposing the mixture to a solid-phase immobilized antigen for a very brief period of time. l practice, this is accomplished by flowing the solution phase antigen-antibody mixture past antigen-coated particles trapped in a flow cell. Data generated by the instrument are analyzed using custom software.
IL-17A was derived from either human (“hu”), cynomolgus monkey (“cyno”), or mouse (“mu”). IL-17A from the same species was used in both the immobilized and solution phases for each KinExA determination. Poly(methyl-methacrylate) (PMMA) particles (98 micron) were coated with human, cyno or mouse IL-17A according to Sapidyne “Protocol for coating PMMA particles with biotinylated ligands having short or nonexistent linker arms.” All experimental procedures were done according to the KinExA 3000 manual. All runs were done in duplicate.
Two-fold serial dilutions of the antigen were prepared and mixed with the antibody at constant concentration. The mixture was incubated for 2 hours at 25° C. to equilibrate.

In order of falling Kd:
1. B8  0.0161 nM
2. B4  0.0108 nM
3. B1  0.0099 nM
4. B5  0.007 nM

target: T1, rhIL-17A; experiment: sandwich ELISA, IL-17A captured on rat 12E6, antibody titrated
Method: Binding of anti-human-IL-17A monoclonal antibodies to rhIL-17A is assessed using an ELISA as follows. Briefly, a capture antibody is bound to the wells of a microtiter plate, after which a fixed concentration of rhIL-17A is added. The monoclonal anti-IL-17A to be assayed is then titrated versus the bound rhIL-17A on the plate to determine the concentration of antibody needed to achieve half-maximal binding. A more detailed protocol follows.
A 96-well microtiter plate is coated with 100 μl/well of capture antibody (rat anti-hIL-17A 12E6, 0.5 μg/ml) in carbonate coating buffer pH 9.5 (the “assay plate”). Plates are incubated covered at 4° C. for 24 to 48 hours. The assay plate is washed three times in a plate washer (SkanWasher, Molecular Devices, Sunnyvale, Calif., USA) and blotted dry. The plate is then blocked with 200 μl/well of ELISA assay buffer (20 mM Tris-HCl, 0.15 M NaCl, pH7.4, 0.5% BSA, 0.05% Tween-20, SM EDTA) for one hour at 25° C. on an orbital shaker. The plate is washed, and 100 μl/well of either adenovirus-derived rhIL-17A or E. coli-derived human IL-17 (IL-17A) (R&D Systems, Minneapolis, Minn., USA) (0.1 g/ml) is added in ELISA assay buffer and incubated for 2 hours at 25° C. on an orbital shaker. […] Plates are incubated for 1.5 hours at 25° C. on an orbital shaker. Plates are washed and 100 μl/well secondary antibody (F(ab′)₂ goat anti-human kappa light chain—HRP, 1:20,000 dilution, BioSource, Carlsbad, Calif., USA) is added, except for assay blank wells. Plates are washed twice (i.e. two cycles of 3 washes per cycle) with plate rotation between cycles. TMB substrate (Kirkegaard & Perry Laboratories, Gaithersburg, Md., USA) is added at 100 μl/well and incubated 3-5 minutes on an orbital shaker. Stop solution is added (100 μl/well) and the plate is read for absorbance at 450-570 um on a plate reader (Versamax, Molecular Devices, Sunnyvale, Calif., USA).

In order of rising EC50:
1. B2  0.049 nM
2. B12  0.053 nM
3. B1  0.06 nM
4. B13  0.063 nM
5. B5  0.065 nM
6. B11  0.066 nM
7. B3  0.068 nM
8. B9  0.074 nM
9. B4  0.075 nM
10. B10  0.125 nM
